Seven molecules from publication PMC11965559 (Nature Communications, 2024) can be followed below.

First the molecules themselves.
B2: Lot5ΔC, Lot5 (residues 1–227), as used in GFC (domain or fragment, S. cerevisiae, UniProt P34234 1-227, looked up)
chain: MMKKKPKCQIARTKPSVENVIPYNQFKKTQPRFNGNFSALNNEEYIILFGGGRDLILGSLTPCSSSHLSNQANPQDTSEYGTDLFILNSCIIIWFNGLGYGLEIPYSSVLYHASRRLPDGREGLQLEILLTLERDEVLDMLYQSLAPQACEFDGEEAHAFTVRSVELTIRPKYSIYDRHYNNEIETLFTFENFGVNRGDDLVNNCNEALAVCMDLHGEDVQDQDQEQ
B3: HT-Lot5ΔC, Lot5 (residues 1–227) with N-terminal HT-tag (domain or fragment, S. cerevisiae, UniProt P34234 1-227, looked up)
chain: MMKKKPKCQIARTKPSVENVIPYNQFKKTQPRFNGNFSALNNEEYIILFGGGRDLILGSLTPCSSSHLSNQANPQDTSEYGTDLFILNSCIIIWFNGLGYGLEIPYSSVLYHASRRLPDGREGLQLEILLTLERDEVLDMLYQSLAPQACEFDGEEAHAFTVRSVELTIRPKYSIYDRHYNNEIETLFTFENFGVNRGDDLVNNCNEALAVCMDLHGEDVQDQDQEQ
B6: Brr1, full length, HT-tag removed (natural protein, S. cerevisiae, UniProt Q99177 1-341, looked up)
chain: MKRGESQAPDAIFGQSRAFALSDSSVNPDVIEYLKSVRQEALRTNAISIKNHMNLQKRTRHKSSMYDDEDEGALKRHAISPSLIRLQRNVEIWVRWFNSVKATVLTNAYEFTGYEDETLDLLLLFLKNYLEDMPSKCTTVEKIISVLNQHSFPEKAEEKEENLQIDEEWAKNILVRLEKTKIDSVEDVKKVITEGDKHELVGYNQWFQYLINNEPQHTTFHEKITSKQLWVLIKYMSNTWIKEIHKKGRHYRRLQDWLFYILVHTPERVTAEYTSILRDLGKKCLELIQKKPVEAHENKITLPKEMAELNVEIPAAVENMTITELTVSVIAVNYGQKDLIE
B7: HT-Brr1, full-length Brr1 with N-terminal HT-tag (natural protein, S. cerevisiae, UniProt Q99177 1-341, looked up)
chain: MKRGESQAPDAIFGQSRAFALSDSSVNPDVIEYLKSVRQEALRTNAISIKNHMNLQKRTRHKSSMYDDEDEGALKRHAISPSLIRLQRNVEIWVRWFNSVKATVLTNAYEFTGYEDETLDLLLLFLKNYLEDMPSKCTTVEKIISVLNQHSFPEKAEEKEENLQIDEEWAKNILVRLEKTKIDSVEDVKKVITEGDKHELVGYNQWFQYLINNEPQHTTFHEKITSKQLWVLIKYMSNTWIKEIHKKGRHYRRLQDWLFYILVHTPERVTAEYTSILRDLGKKCLELIQKKPVEAHENKITLPKEMAELNVEIPAAVENMTITELTVSVIAVNYGQKDLIE

Assay [1] has as its target B2. Description: SEC.
Assay [2] concerns the target B3. Description: pull-down.
Assay [3] deals with T1, full-length Lot5 with N-terminal HT-tag (S. cerevisiae, UniProt P34234 1-306).
T1 sequence (looked up): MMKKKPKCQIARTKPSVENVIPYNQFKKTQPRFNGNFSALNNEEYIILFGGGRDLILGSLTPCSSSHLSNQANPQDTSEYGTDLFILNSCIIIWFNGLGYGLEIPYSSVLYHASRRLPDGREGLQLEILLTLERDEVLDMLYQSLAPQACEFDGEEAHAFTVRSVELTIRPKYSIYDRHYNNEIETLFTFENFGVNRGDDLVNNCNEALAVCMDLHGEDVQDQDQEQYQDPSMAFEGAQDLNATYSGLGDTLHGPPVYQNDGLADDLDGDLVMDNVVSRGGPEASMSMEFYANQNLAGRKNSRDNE
Description: pull-down.

For assay [4], the target named is T2, D1/D2/F/E/G pentamer (5Sm) (S. cerevisiae, UniProt Q02260 1-109; Q06217 1-110; P54999 1-86; Q12330 1-94; P40204 1-77).
T2 sequence (looked up) 1: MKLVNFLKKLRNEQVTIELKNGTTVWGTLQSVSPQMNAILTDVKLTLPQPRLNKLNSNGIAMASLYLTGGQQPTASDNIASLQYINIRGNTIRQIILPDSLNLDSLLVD
T2 sequence (looked up) 2: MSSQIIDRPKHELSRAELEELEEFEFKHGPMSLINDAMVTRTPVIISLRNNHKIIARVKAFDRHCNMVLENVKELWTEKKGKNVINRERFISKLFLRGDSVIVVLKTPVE
T2 sequence (looked up) 3: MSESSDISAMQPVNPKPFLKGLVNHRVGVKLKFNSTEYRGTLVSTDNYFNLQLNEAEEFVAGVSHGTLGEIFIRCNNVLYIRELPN
T2 sequence (looked up) 4: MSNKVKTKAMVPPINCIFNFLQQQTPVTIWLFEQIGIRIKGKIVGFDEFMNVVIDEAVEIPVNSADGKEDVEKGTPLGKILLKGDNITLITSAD
T2 sequence (looked up) 5: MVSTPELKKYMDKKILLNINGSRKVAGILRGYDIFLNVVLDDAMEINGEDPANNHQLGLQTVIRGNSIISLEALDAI
Description: SEC.

In assay [5] the target is T2, D1/D2/F/E/G pentamer (5Sm). Description: pull-down.
The target of assay [6] is B6. Description: SEC.
The target in assay [7] is B7. Description: pull-down.
For assay [8], the target named is T3, Brr1Δ(122-197) with N-terminal HT-tag (S. cerevisiae, UniProt Q99177 1-341, Δ(122-197)).
T3 sequence (looked up): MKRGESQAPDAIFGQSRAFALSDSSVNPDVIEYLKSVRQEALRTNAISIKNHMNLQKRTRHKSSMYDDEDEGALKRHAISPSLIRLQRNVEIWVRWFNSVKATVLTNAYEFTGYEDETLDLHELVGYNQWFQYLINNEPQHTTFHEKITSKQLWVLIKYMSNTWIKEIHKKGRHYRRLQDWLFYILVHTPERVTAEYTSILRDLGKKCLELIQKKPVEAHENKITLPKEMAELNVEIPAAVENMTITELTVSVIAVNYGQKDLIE
Description: pull-down.

The target in assay [9] is T2, D1/D2/F/E/G pentamer (5Sm). Description: pull-down. This is another data set of the same source.

B1: D1/D2 (SmD1/SmD2 subcomplex, HT-tag removed) (complex, S. cerevisiae)
chain 1: MKLVNFLKKLRNEQVTIELKNGTTVWGTLQSVSPQMNAILTDVKLTLPQPRLNKLNSNGIAMASLYLTGGQQPTASDNIASLQYINIRGNTIRQIILPDSLNLDSLLVD
chain 2: MSSQIIDRPKHELSRAELEELEEFEFKHGPMSLINDAMVTRTPVIISLRNNHKIIARVKAFDRHCNMVLENVKELWTEKKGKNVINRERFISKLFLRGDSVIVVLKTPVE
In the case of B1, the binding result in assay [1], in [2] and in assay [3] was “binds” throughout.
B2: the binding result in assay [4] is given as “binds”.
As to B3, the binding result in assay [5] is recorded as “binds”.

B4: D3/B (SmD3/SmB subcomplex, HT-tag removed) (complex, S. cerevisiae)
chain 1: MSKIQVAHSSRLANLIDYKLRVLTQDGRVYIGQLMAFDKHMNLVLNECIEERVPKTQLDKLRPRKDSKDGTTLNIKVEKRVLGLTILRGEQILSTVVEDKPLLSK
chain 2: MTMNGIPVKLLNEAQGHIVSLELTTGATYRGKLVESEDSMNVQLRDVIATEPQGAVTHMDQIFVRGSQIKFIVVPDLLKNAPLFKKNS
For B4, the binding result in assay [1], in [2] and in assay [3] was “binds” in each case.

B5: F/E/G (SmF/SmE/SmG subcomplex, HT-tags removed) (complex, S. cerevisiae)
chain 1: MSESSDISAMQPVNPKPFLKGLVNHRVGVKLKFNSTEYRGTLVSTDNYFNLQLNEAEEFVAGVSHGTLGEIFIRCNNVLYIRELPN
chain 2: MSNKVKTKAMVPPINCIFNFLQQQTPVTIWLFEQIGIRIKGKIVGFDEFMNVVIDEAVEIPVNSADGKEDVEKGTPLGKILLKGDNITLITSAD
chain 3: MVSTPELKKYMDKKILLNINGSRKVAGILRGYDIFLNVVLDDAMEINGEDPANNHQLGLQTVIRGNSIISLEALDAI
As for B5, the binding result in [6], in assay [7] and in assay [8] was “binds” in each case.
On to B6, for which the binding result in assay [4] is reported as “binds”.
On to B7, for which the binding result in [9] was “binds”.
